# Measured values as given in publication PMC9891256.
# Target: KREPA2 αH1 group mutant of the negatively charged glutamic and aspartic acid residues (to alanine) (T. brucei)
# Assay: pull-down
substance,measurement,value
kinetoplastid RNA editing ligase 1 (KREL1) full-length (51-469) (enzyme),decrease in binding efficiency against the wild type,75%
